This note sets out measurements from publication PMC4431388, “Effect of the distal histidine on the peroxidatic activity of monomeric cytoglobin” (F1000Research, 2015).

This data set deals with the molecule itself. In words: SEC; G75 Superdex column equilibrated with 0.1 M sodium phosphate buffer pH 7.4; absorbance at 280 nm; monomer to dimer of the recombinant protein as purified. For orientation: SEC sorts molecules by how far they enter the pores of the column.

Substitutions are numbered along the chain they refer to. Names may count otherwise.

B1: human cytoglobin, wildtype (natural protein, UniProt Q8WWM9 1-190, looked up)
chain: MEKVPGEMEIERRERSEELSEAERKAVQAMWARLYANCEDVGVAILVRFFVNFPSAKQYFSQFKHMEDPLEMERSPQLRKHACRVMGALNTVVENLHDPDKVSSVLALVGKAHALKHKVEPVYFKILSGVILEVVAEEFASDFPPETQRAWAKLRGLIYSHVTAAYKEVGWVQQVPNATTPPATLPSSGP
notes: cytoglobin, human; gene bought from OriGene and transferred into pET28a; monomer runs at 21 kDa; Haem protein; The preparation holds monomer, dimer and a minor polymerised fraction; also called Cygb; WT Cygb
Usually stoichiometry N stands for a count of units in the complex or per binding partner. In the case of B1, the “stoichiometry N” value is 2.

B2: human cytoglobin H81V (natural protein, UniProt Q8WWM9 1-190, looked up)
chain: B1 chain with H81V
notes: cytoglobin, human, distal histidine mutant; Haem protein; also called H81V Cygb; histidine 81(E7) to valine mutation
As for B2, the binding result was “binds”.

B3: human cytoglobin H81Y (natural protein, UniProt Q8WWM9 1-190, looked up)
chain: B1 chain with H81Y
notes: cytoglobin, human, distal histidine mutant; Haem protein; also called H81Y Cygb; histidine 81 to tyrosine mutation
Regarding B3, the binding result is reported as “binds”.
